Test results as given in paper PMC11833123, “A bipartite bacterial virulence factor targets the complement system and neutrophil activation” (The EMBO Journal, 2025).

B1: N0362, the N-terminus of TDE0362 (23–204 aa) (domain or fragment)
chain: KNNLLTKTEKEKSGEIPVKNIILSPNKSEFSLEKNTAQTITVKIIPEKATNKALIYSSKHGDIASIDNTGLITAKKEGRTIITIEASNGVKKTIDVIVTPEPIPVTNIEFEEEPPAFLFIGDVYIFKAKAKPDEATNRKLEYTTMTSDVISVTNTELGTMKATKEGNAAITIRSASTPSVAK
modifications: Alexa Fluor 488 label (only in the immunofluorescence on cells)
notes: TDE0362 of Treponema denticola ATCC 35405 (647 aa pre-protein), residues 23-204 with both bacterial Ig-like domains Big_1 and Big_2; Cloned in pET100/D-TOPO, which encodes the N-terminal 6xHis-tag; The same construct was used unlabelled (pull-down, ELISA, SPR) and labelled with Alexa Fluor 488 (cells); also called recombinant N0362; His-tagged N0362; source: E. coli BL21-CodonPlus (DE3)-RIL, …

Key:
[1] = target: C0362, C-terminal part of TDE0362 with the Mac-like domain (205–647 aa) (Treponema denticola ATCC 35405) (UniProt Q73QT1); test: SEC; dimer fraction noted during SEC of purified C0362; column and buffer are not tied to this remark
[2] = target: T1, GST-CXCR1 (recombinant, from E. coli) (UniProt P25024 1-350); test: SPR; GST-CXCR1 coupled (EDC/NHS) to CM5 sensor chips, N0362 flowed over (0.05 or 0.1 µM to 3 µM), 25 °C, dPBS with 0.01% Tween 20, Reichert SR7500DC; kinetics globally fit to a one to two binding model, affinity model for saturation; conditions: both partners purified
T1 construct: CXCR1 (Uniport entry P25024), full length, gene codon optimized and synthesized, cloned into pGEX-6P-1; also called CXCR1 from E.coli; recombinant GST-CXCR1; source: E. coli BL21, purified (Glutathione Agarose with 5% sarkosyl in the lysis buffer, SEC); not shown: GST, N-terminal, kept
T1 sequence: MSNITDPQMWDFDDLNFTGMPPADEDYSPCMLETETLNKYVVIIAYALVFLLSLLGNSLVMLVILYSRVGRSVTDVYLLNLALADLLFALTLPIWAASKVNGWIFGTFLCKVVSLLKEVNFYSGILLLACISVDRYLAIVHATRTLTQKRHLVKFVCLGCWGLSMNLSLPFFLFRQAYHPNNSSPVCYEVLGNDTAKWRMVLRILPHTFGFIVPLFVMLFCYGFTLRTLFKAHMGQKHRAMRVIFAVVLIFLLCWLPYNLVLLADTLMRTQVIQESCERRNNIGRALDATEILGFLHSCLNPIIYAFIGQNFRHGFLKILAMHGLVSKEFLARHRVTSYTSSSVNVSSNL

Molecule	fraction of the total material that was dimer [1] [%]	Kd [2] [nM]	koff [2] [s⁻¹]	kon [2] [M⁻¹ s⁻¹]
C0362, C-terminal part of TDE0362 with the Mac-like domain (205–647 aa) (from UniProt Q73QT1 205-647) (enzyme)	10	–	–	–
B1	–	264 ± 2.3	0.000857	4950
